According to publication PMC3525766 (Journal of structural biology, 2012):

Biological target: the molecule itself
Experiment: cross-linking

B1: coiled-coil domain of human LRRFIP1 (LRRFIP1-CC) (domain or fragment)
chain: MDSLAEVEEKYKKAMVSNAQLDNEKTNFMYQVDTLKDMLLELEEQLAESRRQYEEKNKEFEREKHAHSILQFQFAEVKEALKQREEMLEK
- stoichiometry N: 2
